This is an account of results in the supplement of paper PMC9732359.

The data set can be described thus: protein stability index of a GFP-peptide fusion (yeast GPS) (PSI 1-4); higher = more stable; sorted into four equal gates, so the index is relative within each strain. In outline:
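Tiled yeast protein peptides of 17 residues were each joined downstream of GFP, on plasmids that also express Cherry. The pooled library was maintained in yeast, and mid-log cultures in leucine-free medium were sorted into four equal gates on the GFP/Cherry ratio. Plasmids from every gate were amplified by PCR and sequenced on Illumina, with barcodes linking reads to strains. The protein stability index of a peptide is its gate-number-weighted read frequency summed over the gates.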

± gives the uncertainty stated by the source.

Consider FKAMEDVIAWKNVLANS [ITC1], for which the protein stability index worked out at 2.95 ± 0.16 (pdr5∆), 3.55 ± 0.078 (san1∆) and 3.49 ± 0.16 (ubr1∆).
Consider LRLRGGIIEPSLKALAS [RPL40A], for which the protein stability index runs as follows: (doa10∆) 3.1 ± 0.046; (pdr5∆) 3.02 ± 0.048; (san1∆) 2.7 ± 0.048; (ubr1∆) 3.02 ± 0.045.
The matching figures for EVRAISVAKIRFPETMD [RPO21]: 3.08 ± 0.1, 2.87 ± 0.087, 2.73 ± 0.079 and 3.28 ± 0.044.
For TVVQVYDNGQVFPSSIL [RPP0], the protein stability index runs as follows: (doa10∆) 1.19 ± 0.059; (pdr5∆) 1.29 ± 0.13; (ubr1∆) 1.29 ± 0.14.
Consider PVKSIRARLKGKEGRIR [RPO21], for which the protein stability index (doa10∆) was 3.36 ± 0.091, the protein stability index (pdr5∆) worked out at 3.22 ± 0.11, the protein stability index (san1∆) was determined as 3.33 ± 0.085 and the protein stability index (ubr1∆) is 2.94 ± 0.079.
As to IKSGVAKLESLLENSVD [MTW1], the protein stability index was 3.29 ± 0.098 (doa10∆), 3.4 ± 0.091 (pdr5∆), 3.32 ± 0.055 (san1∆) and 3.4 ± 0.075 (ubr1∆).
Turning to AFVSVYSKNNPNLLFSM [PRP8], the protein stability index (doa10∆) is 1.93 ± 0.063, the protein stability index (pdr5∆) worked out at 2.74 ± 0.058, the protein stability index (san1∆) came to 2.61 ± 0.064 and the protein stability index (ubr1∆) was found to be 2.71 ± 0.038.
Take TSIEKSSEILSYLSNSL [YML103C/NUP188]: the protein stability index runs as follows: (doa10∆) 2.21 ± 0.072; (pdr5∆) 2.57 ± 0.076; (san1∆) 1.49 ± 0.1; (ubr1∆) 2.14 ± 0.046.
As to GSSKPAFSFGAKPDEKK [YJL041W/NSP1], the protein stability index is, setting by setting: (doa10∆) 3.19 ± 0.17; (pdr5∆) 3.18 ± 0.14; (ubr1∆) 3.29 ± 0.17.
For the sequence QQNIKFRRDFLLREYDI [YJL039C/NUP192], the protein stability index (doa10∆) is 2.5 ± 0.058, the protein stability index (pdr5∆) was 2.57 ± 0.055, the protein stability index (san1∆) was 2.9 ± 0.045 and the protein stability index (ubr1∆) was determined as 2.63 ± 0.037.
Turning to YCSGNIYDFHKMENLMR [YJL039C/NUP192], the protein stability index is, setting by setting: (doa10∆) 2.77 ± 0.068; (pdr5∆) 2.79 ± 0.059; (san1∆) 2.52 ± 0.05; (ubr1∆) 2.73 ± 0.052.
